# Reference: the DeepSol protein solubility set
# Test: soluble on expression in E. coli; label from the status in PepcDB or PDB records
row,Sequence,soluble on expression in E. coli
1,MSKLEFLAFYDELTGLPNKNSLIRWLNLKVSQMDCIDTYLIFLEVRDLEKLNVTYGYDLVDELIIHISKRIKDIAGEGNKAFKIGFDRFAIICKSENISDFIERMLSQLLLPYNVNGNLIRVNFNIGAAQIENSNEAAANLMRRCDLALIKAKEEGLNEYVIFKPSIEIQTLEHHHHHH,soluble
2,MSHTSNFTRNFHCRSSSNKRSESEKSPSFSKKRRRARALDPDEFIPPVEGPDVQKIDSETSRKCHSIKGFNVNKDGSVRRLEDNSKYEHNKSSRQKRSEAAPLENSEGKSTKSRKLSSPSKKSNKKSISKKSDRSKVSKVKRSPKTDKELEKKPSSIYERKDVDGHDDLKVPNMRSRKHSENSKNLFDYFFWFSLQTSKMKSLNYIEMLSNGDIKAPISAVFCPTRGSSTAPNCFAIIGVWRRRKKRSVSKLIKIGFSIPQSMEILTKKGQLFPNLITRQIPMEIRAVNFAHLHFSHRLVDFASGDDVLCDRIQHTIHVQS,not soluble
3,MGSDKIHHHHHHMEAAAQFFVESPDVVYGPEAIEAQYEYRTTRVSREGGVLKVHPTSTRFTFRTARQVPRLGVMLVGWGGNNGSTLTAAVLANRLRLSWPTRSGRKEANYYGSLTQAGTVSLGLDAEGQEVFVPFSAVLPMVAPNDLVFDGWDISSLNLAEAMRRAKVLDWGLQEQLWPHMEALRPRPSVYIPEFIAANQSARADNLIPGSRAQQLEQIRRDIRDFRSSAGLDKVIVLWTANTERFCEVIPGLNDTAENLLRTIELGLEVSPSTLFAVASILEGCAFLNGSPQNTLVPGALELAWQHRVFVGGDDFKSGQTKVKSVLVDFLIGSGLKTMSIVSYNHLGNNDGENLSAPLQFRSKEVSKSNVVDDMVQSNPVLYTPGEEPDHCVVIKYVPYVGDSKRALDEYTSELMLGGTNTLVLHNTCEDSLLAAPIMLDLALLTELCQRVSFCTDMDPEPQTFHPVLSLLSFLFKAPLVPPGSPVVNALFRQRSCIENILRACVGLPPQNHMLLEHKMERPGPSLKRVGPVAATYPMLNKKGPVPAATNGCTGDANGHLQ,not soluble
4,MGSDKIHHHHHHMKLRSWEFYDRIARAYDSMYETPKWKLYHRLIGSFLEEYLKNPCRVLDLGGGTGKWSLFLQERGFEVVLVDPSKEMLEVAREKGVKNVVEAKAEDLPFPSGAFEAVLALGDVLSYVENKDKAFSEIRRVLVPDGLLIATVDNFYTFLQQMIEKDAWDQITRFLKTQTTSVGTTLFSFNSYAFKPEDLDSLEGFETVDIRGIGVMEYPDERISEREETIFRLEQELSRDRNIIWKADHIFFVLKKKRGA,soluble
5,MDTGNNNNLPTLLKCNFPPYGKDYPGGFATGRFSDGRVPSDLIAEKLGLAKTLPAYMNPYLKPEDLLKGVTFASGGTGYDPLTAKIMSVISVWDQLINFKEYISKIKRHFGEEKAKDILEHSFFLVVSSSNDLAHTYLAQTHRYDRTSYANFLADSAVHFVRELHKLGARKIGVFSAVPVGCVPLQRTVFGDKELDGVILYINVYDTLFDMIQHPKKYGFEVADRGCCGKGLLAISYLCNSLNPFTCSNSSAYIFWDSYHPSERAYQVIVDNLLDKYLSKVY,soluble
6,MSTIIMDLCSYTRLGLTGYLLSRGVKKREINDIETVDDLAIACDSQRPSVVFINEDCFIHDASNSQRIKLIINQHPNTLFIVFMAIANVHFDEYLLVRKNLLISSKSIKPESLDDILGDILKKETTITSFLNMPTLSLSRTESSMLRMWMAGQGTIQISDQMNIKAKTVSSHKGNIKRKIKTHNKQVIYHVVRLTDNVTNGIFVNMR,not soluble
7,GPGSMRSLVVHLLSYTQRFASAKPTILYVPQKTLIAEQVMEDEFKLSHTFPSLRIASLDLDYVFLEEKFFTMTLPLSFKSVFADGDLSNLTWIARLLLKLQTARFGAIRHIRGKGSNAAKVIQLLQRMQNNISHDFITDIPSEVETLIIIDRSVDFVTPLMTQLTYEGLIDELYDIENCEVQFPFSLGESSGVGASEKVVLNSTDRMFAEIRDRSFTGVGSVLYQKSIWVKQNYDKRKEVQQLKELKEFMKGLPEMQEMHRLIGIHTNVATEISKTTQRTDFRKRIMFEHNIIQQTNEGDVLRYIEDLVFRKEKFEVVLRLLALLSLVNSGLREKDLLGLKENMMLVYGIPHVITAFFMLERCGLLCAQSGKGSSYSTIRKQLRTWNSSVPEGQPNDIAYAYGGYAPPFVRMVDTLLRNPQAWDAEDDAPSLLPGEKKELMNDVEIAGTTKTAIVFVIGGITASEVSALRFVEERLSSGGRPHRIFIGTTDIISGNRMIRSLLPFEPAR,not soluble
8,SNAMNIQALLSEKVSQALIAAGAPADCEPQVRQSAKVQFGDYQANGVMAVAKKLGMAPRQLAEQVLSHLDLNGIANKVEIAGPGFINIFLDPAFLADNVNRALQSERLG,soluble
9,MGSDKIHHHHHHAQKKVIIEDEEPNSVMFVSTNKAGDEIIRIMNETRLPRFHEPKAPRFVLTDRQGKFALGIGGYVRATAEYDFGGIVKDVDFYPALIPNKGSADRARNQFQMDISTSTLFLKLVGHTKRLGDFVVYTAANFRGDGKTFELQNAYATFLGFTLGYSYGNFMDLAALPPTIDFAGPNGSAFYRTTQLSYMCDKLKNWKFGVGVEMPSVDGTTNQYLTINTQRMPDFTASAQYNWNANSHLKLAAIVRSMTYSSSVDNKAHSKAGYGLQASTSFNVTPKWQVYGQVNYGKGIGQYLNDLSNLNVDIVPNPEKEGRMQTLPMLGWFAGLQYNISKNVFVSGTYSLSRLYSEHTYPSDEPDMYRKGQYLVANLFWNVTSNLQVGAEYLRGWRTDFSSNTRHANRMNALVQYSF,not soluble
10,MSDSRYKVDVSVVTRFLAEQSQPEQNRFAFAYTITVHNNGELPAKLLSRHWIITDGDGHVEEVRGEGVVGQQPLIKVGQSHTYSSGTVMTTQVGNMQGSYQMLAEDGKRFDAVIEPFRLAVPGSLHLEHHHHHH,soluble
11,MGSDKIHHHHHHMHVKRAATAGFCMGVGLALKKLDRELDNNAKDIATLGPIIHNPQVLRRYEQKGVRCYTDPAEARSGQRVVIRAHGIPEETESALAAAGVDLVDATCPKVKRAQLGIARQREKGRTLLLFGEHDHPEVQGLLSYAGEGAVVFGSLEELQNGPLEDDRHYFLAAQTTQDKHAFTSVIEWVRRRFGDHVPVLDTICDATRERQDEAIAIARSVDVMVVVGGFASGNTRRLAEVAQAQGVPTYHVETPDQLPLDAIRGYGAAGLTAGASTPKSIIDETQKLLESL,not soluble
12,MQCNDVQATEPDIKVSLTRVGVTNLKKLVKLKRKNKRDIVLLPTFEVFVDLPSSQKGIHMSRSPEVIEEVVENILLEKEIYGVEDLSVEIVMKLFEKHEYATRAEVMLYSDYMMEEKSPVTKKDSQEIGKIIARAYGVKDSNGKIDVKKMVGAEVVGITACPCAQNMLKENAVVSLTEKGFSSEDIEKILDSVTIATHNQRGIGTVMIEVPNGYTVGISKIIKIIKDSMSGEVYELLKRSDEAFVVEAAHKNPKFVEDCAREMIKRVVDVFDYLPEDTQVLVRQVNKESIHRHDAFAERNSTIRELRDELKTLTN,not soluble
13,MDAHQIISFIQNSKKATPVKVYLKGDLEKIDFPSDVKTFITGNAGTIFGEWAVVEPLLEANKANIEDYVIENDRRNSAIPLLDMKNI,not soluble
14,MNPIEIIDKFYPQDTEQRHILLIHSLSVAQKALKIVDAHPNLPINRSFVREAALLHDIGIFMTDAPTIQCFGEHPYIAHGYLGADLLRKEGFERHALVCERHTGAGLTLEEIIERQLPVPHREMVPVTLEEQIICFADKFFSKTHLDEEKTVEKARKSIAKYGEEGLNRFDGWCSLFL,not soluble
15,MGSDKIHHHHHHLGPPTPLGLRAAPHNVTNLAQTPLAERLRSLVDTVQHNERTLRRFQSVELRLIGAQDFASFLDTLFGQLPREFSLAGVTLWLDDRAPMLRELLEPVALRALDQPRLRTSREGGLAAQGLCEDGRPWLGTPRELDDTVRRAFFGDAEQVPASAILLPLASGDTVGGYLWLGSDDAARFAQGMATDILERFASIVTASLDNVAHRERLKQLGMTDSLTGLANRRYFDERLREEVMRAVRYRMPVACLFIDIDSFKRINDTYGHQTGDRALAAVAACVRQQVRLGDTVARYGGEEFAALLQGDRADALTVAERVRLAVERLALQDDHGERIALTVSIGVAARMVSGTPTEAAMLGGAIIEEADRAMYQAKRNGRNRIEALVNASGDHTAG,not soluble
16,MSDKPEDENTNENPGRRRFLGGMAALGAGVTLSGYVSAHERPPAEAEKHHLVGPALDRALRENVKTVVVIYAENRSFNNLFGNFPGVQKPLSSVRPADYVQRDRNGTLLDKLPPAWGGVLQVGPQTVDGVTYPVGVQFQENLPNAPFPLKGPNAEDLPLSLVTRDLWHVFYQNQMQINDGKNDRFVAWADAGGLTMGNYAQTQYSLRLWDVAKEFVLCDNFFQGAFGGSFLNHQYLISATAPIYPNAADSPAKSQIASLQSMNPLDSRLKPLDKSPASAMEGPPQFGPSAITPDNYAVNTLAPPYWPTWLRDPQNPDYSKPDLANVLVPQSHEHIGDKLSKRNVDWAWYAGAWQVTLDEFKDSTGIPKIPNFQYHHQPFNYFKQQGPQNPEERKKRLRDGGLGDESSTNRFLADAEAGKLPAVAFYKPQGNLNMHAGYADVASGDRHIDRVIKVLRNSPQWDNMVIVVTVDENGGWWDHVAPPKGDRFGPGTRIPALVISPFARKGKVDHTVYDTASILRLITRVHGLEKLDGLKRRDEAMIARGQAPMGDLTNALHFPALEHHHHHH,soluble
17,MSLTQFASPVLHSLLDTDAYKLHMQQAVFHHYYDVHVAAEFRCRGDDLLGIYADAIREQVQAMQHLRLQDDEYQWLSALPFFKADYLNWLREFRFNPEQVTVSNDNGKLDIRLSGPWREVILWEVPLLAVISEMVHRYRSPQADVAQALDTLESKLVDFSALTAGLDMSRFHLMDFGTRRRFSREVQETIVKRLQQESWFVGTSNYDLARRLSLTPMGTQAHEWFQAHQQISPDLANSQRAALAAWLEEYPDQLGIALTDCITMDAFLRDFGVEFASRYQGLRHDSGDPVEWGEKAIAHYEKLEIDPQSKTLVFSDNLDLRKAVELYRHFSSRVQLSFGIGTRLTCDIPQVKPLNIVIKLVECNGKPVAKLSDSPGKTICHDKAFVRALRKAFDLPHIKKASEGHHHHHH,soluble
18,MTTAITPDKKKLVSPKPTKTTSDKSKTKPRRSSKTSKKRKSKKGLFGCCAKKRKTKRSKKSAKRTKRSAPKKAPKKAPMKAPSKPAAKLVPQQAQASLQKPIQSGIVDADATVKTVVPRPPTPIPPTGVKPEPAPRSEPLYQPRSVSSTTPRTSATTGTTEQMVTAPATLPPPSAESKHLPQDPPGDASSPRVQRQYTAEKYSKEDQDDDDQKDLRKSVAYPSHKFFMTQYVKDECRVRRWVYEDSVPLMMESNMKHMLRMASNRIAACQSDKARRCDMMKDLNEMTEILDGNF,not soluble
19,MGSDKIHHHHHHMGSFALPANAQCEAKNDAFQSGEHVMYDLYFNWKFVWVKAGIASLTTNATTYHSEPAYRINLLALGSKRADFFFKMRDTLTCVMGEKLEPRYFRKGAEEGKRYTVDEAWFSYKDGLCFAKQKRTFRDGEVQESEESDSRCIYDMLTILAQARSYDPADYKVGDKIKFPMATGRKVEEQTLIYRGKENVKAENGVTYRCLIFSLVEYDKKGKEKEVITFFVTDDKNHLPVRLDMFLNFGSAKAFLNDVRGHRHPLTSIVK,not soluble
20,MSLLLIVAGHDPTGAGLRADIATAEALGVPAVSLPTLLSLQDEGVELVEPVDSRFMSDCLARYVPRCEVVKVGAVPTLKTFEILAKRLRDLTVVWDPVFRAEAGGELSEATPEEALETFGETVDILTPNTEELSQLVGREVRTTVEAELAARELVEEYGLTGVLVTGGHSVDRRDVWVPAEGNTIAWEVPPGEGAHGSGCVLSTALACFLVRGLDPETAVERAVRFARAAVREARNTPFGRVADPVAQIRRDATLGKATQHVIRALEIIESDPAFARAIPQVGMNVAEVFDPSRGLEGVVGLSGRIVLDGDRPTAVGRPVPGGSKHVGTVALTAHRLDPSVRAAVNARYDEELIERARDLGFVVSSFDRSEEPEEVDSTMEWGTEVAFRRADDTPDVVYDEGDVGKEPMIRVLGKSAVEAVTKLRMLLGCVVGEGHHHHHH,soluble
